Patent US20260193375A1 (NORMUNITY, published 2026)

What was measured:
Human LY6K (R&D Systems) = target: T1, Human LY6K (R&D Systems) (human, UniProt Q17RY6 18-138, limits assumed); assay: ELISA, coated antigen, IgG1 at 10 ug/ml
T1 construct: Bought from R&D Systems, coated on ELISA plates; also called hLY6K
T1 sequence: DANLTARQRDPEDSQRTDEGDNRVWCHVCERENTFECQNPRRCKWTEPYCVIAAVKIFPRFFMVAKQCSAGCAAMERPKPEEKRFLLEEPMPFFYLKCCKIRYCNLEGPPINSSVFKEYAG

[1] = target: T2, cynomolgus monkey LY6K (R&D Systems) (cynomolgus monkey); assay: ELISA, coated antigen, IgG1 at 10 ug/ml
T2 construct: also called cyLY6K

rat LY6K (R&D Systems) = target: T3, rat LY6K (R&D Systems) (rat); assay: ELISA, coated antigen, IgG1 at 10 ug/ml
T3 construct: also called rLY6K

human LY6E (R&D Systems) [2] = target: T4, human LY6E (R&D Systems) (human, UniProt Q16553 21-101, limits assumed); assay: ELISA, coated antigen, IgG1 at 10 ug/ml
T4 construct: also called hLY6E
T4 sequence (looked up): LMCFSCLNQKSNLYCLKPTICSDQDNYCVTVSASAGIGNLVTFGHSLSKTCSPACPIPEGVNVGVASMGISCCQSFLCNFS

hLY6K-his = target: T5, hLY6K-his (human, UniProt Q17RY6 18-138, limits assumed); assay: SPR (Carterra LSA), mAb captured on anti-human IgG-Fc, antigen as analyte
T5 construct: not shown: his tag
T5 sequence: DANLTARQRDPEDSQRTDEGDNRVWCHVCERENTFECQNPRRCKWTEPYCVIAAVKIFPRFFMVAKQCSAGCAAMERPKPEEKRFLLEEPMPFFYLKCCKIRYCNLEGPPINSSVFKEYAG

hLY6K-mFc = target: T6, hLY6K-mFc (human, UniProt Q17RY6 18-138); assay: as above
T6 construct: not shown: mFc
T6 sequence: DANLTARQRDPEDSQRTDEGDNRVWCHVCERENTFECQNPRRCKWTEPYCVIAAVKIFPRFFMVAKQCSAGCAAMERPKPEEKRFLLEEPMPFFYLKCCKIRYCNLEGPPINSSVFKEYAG

Ly6D = target: T7, Ly6D; assay: ELISA, antigen coated on the plate, antibody as human IgG1, anti-human F(ab)2 HRPO
T7 chain: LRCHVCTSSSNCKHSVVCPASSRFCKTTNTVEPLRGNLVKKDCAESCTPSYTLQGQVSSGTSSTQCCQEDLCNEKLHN

Ly6H = target: T8, Ly6H; assay: as above
T8 chain: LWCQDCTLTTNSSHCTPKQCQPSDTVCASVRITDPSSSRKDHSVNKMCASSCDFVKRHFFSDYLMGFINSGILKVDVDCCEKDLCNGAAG

human LY6E (R&D Systems) [3] = target: T4, human LY6E (R&D Systems); assay: as above
cyLY6K-mFc = cyLY6K-mFc (cynomolgus monkey); assay: SPR (Carterra LSA), mAb captured on anti-human IgG-Fc, antigen as analyte

| Binder | % of maximum of commercial anti-LY6K mAb on human LY6K (Human LY6K (R&D Systems)) | % of maximum of commercial anti-LY6K mAb on human LY6K [1] | % of maximum of commercial anti-LY6K mAb on human LY6K (rat LY6K (R&D Systems)) | % of maximum of commercial anti-LY6K mAb on human LY6K (human LY6E (R&D Systems) [2]) | Kd (hLY6K-his) | Kd (hLY6K-mFc) | binding result (Ly6D) | binding result (Ly6H) | binding result (human LY6E (R&D Systems) [3]) | Kd (cyLY6K-mFc) |
| --- | --- | --- | --- | --- | --- | --- | --- | --- | --- | --- |
| anti-LY6K antibody 3102 (antibody, V domains shown) VH: QVQLVQSGAEVKKPGASVKVSCKASGYTFTGYYIHWMRQAPGQGLEWMGWINPNSGGTNYAQNFQGRVTMTRDTSINTAYMELSRLKSDDTAVYYCAKESGSPWGQGTLVTVSS VL: not shown | 38.4% | 40.1% | 0.2% | 3.8% | – | – | – | – | – | – |
| anti-LY6K antibody 2659 (antibody, V domains shown, Has values only in SPR (CHO supernatant, captured by anti-human IgG-Fc)) VH: EVQLVESGGGLVQPGRSLRLSCAASGFTFDDYAMHWVRQAPGKGLEWVSGISWKSGIIGYADSVKGRFTISRDNAKNSLYLQMNSLRAEDTALYYCAKDSRTGLDYWGQGTLVTVSS VL: not shown | – | – | – | – | 6.13 nM | 0.034 nM | – | – | – | – |
| anti-LY6K antibody 3553 (antibody, V domains shown) VH: QVQLVQSGAEVKKPGASVKVSCKASGYTFTGYYMHWVRQAPGTGLDWMGWISPNSGGTNYAQKFQGRVTMTRDTSISTVYMELSRLRSDDTALYYCAREVGNYWGQGTLVTVSS VL: DIQMTQSPTSLSTSVGDRVTITCQASQDIYNYLNWYQLKPGKAPKLLIYDASNLERGVTSRFSGSGSGTDFTFTISSLQPEDIATYYCQQYDSLPITFGQGTRLEIK | 26% | 28.9% | 2.4% | 5% | – | – | – | – | – | – |
| anti-LY6K antibody 3743 (antibody, V domains shown) VH: EVQLVESGGGLVHPGRSLRLSCAASGFTFDDYAMHWVRQAPGKGLEWVSGISWKSGRIDYADSVKGRFTISRDNAKNSLYLQMNSLRAEDTALYYCAKDRRELTFDIWGQGTMVTVSS VL: DIVMTQTPLSSPVTLGQPASISCRSSQSLEHSNGNTYLSWLQQRPGQPPRLLIYKISNRFSGVPDRFSGSGAGTDFTLKISRVEAEDVGVYYCMQTTQFPLTFGGGTKVEIK | – | 3.5% | 2.6% | 5% | – | – | – | – | – | – |
| anti-LY6K antibody 3056 (antibody, V domains shown, Has values only in SPR (CHO supernatant, captured by anti-human IgG-Fc)) VH: EVQLVESGGGLVQPGRSLRLSCAASGFTYDDYAMHWVRQVPGKGLEWVSGITWKKSIIGYADSVRGRFTVSRDSAKNSLYLQMSSLRVEDTALCYCAKDSTDGLDYWGQGTLVTVSS VL: DIVMTQTPLSSPVTLGQPASLSCRSSQSLLHSNGNTYLSWLQQRPGQPPRLLIYKISNRFSGVPDRFSGSGAGTDFTLKISRVEGEDVGVYYCMQATEFPYTFGQGTKLEIK | – | – | – | – | 0.472 nM | 0.0233 nM | – | – | – | – |
| anti-LY6K antibody 3063 (antibody, V domains shown) VH: EVQLVESGGGLVKPGRSLRLSCAASGFTFDDFAMHWVRQAPGKGLEWVSGLSWKGHTLGYADSVKGRFTFSRDSAKNSLYLQMNSLRAEDTALYYCAKDTRSGLDYWGQGTLVTVSS VL: DIVMTQTPLSSPVTLGQPASISCRSSQSLEHSDGNTYLSWLQQRPGQPPRLLIYKISNRFSGVPDRFSGNGAGTDFTLKISRVEAEDVGIYYCMQATEFPFTFGGGTKVEIK | – | 2.6% | -0.2% | 4.2% | – | – | no binding (tested: 10 µg/ml) | no binding (tested: 10 µg/ml) | no binding (tested: 10 µg/ml) | – |
| anti-LY6K antibody 3518 (antibody, V domains shown) VH: EVQLVESGGGLVQPGGSLKLSCAASGFTFSGSAMNWVRQASGKGLEWVGRIRSKANSYATAYAASLKGRFTISRDDSKNTAYLQMNSLKTEDTAVYYCTVTPFDYWGQGTLVTVSS VL: DIQMTQSPSSLSASVGDRVTITCQASQDISNHLNWYQQKPGKAPKLLINDASNLETGVPSRFSGSGSGTDFTFTISSLQPEDIATYYCQQYDNVPYTFGQGTKLEIK | – | 2.7% | 2.1% | 2.1% | – | – | – | – | – | – |
| anti-LY6K antibody 3096 (antibody, V domains shown) VH: QVQLVQSGAEVKKPGASVRVSCKASGYTFTGYYIHWVRQAPGQGLEWMGWINPNSGGTNYAQKFQDRVTMTRDTSISTVYMELSRLRSDDTAVFFCAREASNFWGQGTLVTVSS VL: not shown | 35% | 37.2% | 0% | 1% | 63.8 nM | 1.36 nM | – | – | – | 9.49 nM |
| anti-LY6K antibody 3514 (antibody, V domains shown) VH: QVQLVQSGAEVKKPGASVKVSCKASGYTFTSYGISWVRQATGQGLEWMGWMNPNSGNTGYAQKFQGRVTMTRNTSISTAYMELSSLRSEDTAVYYCRAAGYYYYYYYMDVWGKGTTVTVSS VL: not shown | – | 2.6% | 0% | 2.9% | – | – | – | – | – | – |
| anti-LY6K antibody 3728 (antibody, V domains shown) VH: EVQLVESGGGLVKPGGSLRLSCAASGFTFSDVWMSWVRQAPGKGLEWVGRIKSKTDGGRIDYAAPVKGRFTISRDDSKNTLYLQMNSLKTEDTAVYYCTTVPYSDYWGQGTLVTVSS VL: not shown | 96.4% | 110% | -1.3% | 1% | 4.96 nM | 0.00734 nM | – | – | – | 0.0786 nM |
| anti-LY6K antibody 3719 (antibody, V domains shown) VH: EVQLVESGGGLVQPGRSLRLSCTASGFTFNDYAMHWVRQAPGKGLEWVSGISWNSNNIDYADSVKGRFTISRDNAKNSLYMQMNSLRAEDTALYYCAKDGPGTTNDAFDIWGQGTMVTVSS VL: DIQMTQSPSSLSASVGDRVTITCRASHSISSYLNWYQQKPGKAPKLLIYAASSLQSGVPSRFSGSGSGTDFTLTISSLQPEDFATYYCHQGYSTPLTFGGGTKVEIK | – | 0.8% | -1.7% | 4.2% | – | – | no binding (tested: 10 µg/ml) | no binding (tested: 10 µg/ml) | no binding (tested: 10 µg/ml) | – |
| anti-LY6K antibody 3527 (antibody, V domains shown) VH: EVQLVESGGGLVKPGGSLRLSCAASGFTFSSYSMNWVRQAPGKGLEWVSSISSTSSYIYYADSVKGRFTISRDNAKNSLYLQMNSLRAEDTAVYYCARSDYYDSGSYKNYYYYYMDVWGKGTTVTVSS VL: DIQMTQSPSSLSASVGDRVTITCRTSQSISSYLNWFQQKPGKAPKVLIYAASSLQRGVPSRFSGSGSGTDFTLTISSLQPEDFATYYCQQSYSTPLTFGGGTKVEIK | 54.6% | 58% | 1.1% | 4.6% | – | – | – | – | – | – |
| anti-LY6K antibody 3501 (antibody, V domains shown) VH: EVQLVESGGGLVQPGRSLRLSCAASGFTFDDYAMHWVRQAPGKGLEWVSGISWNSGTIDYADSVKGRFTISRDNAKNSLYLQVNSLRAEDTALYYCAKDSPQKDYYYMDVWGKGTTVTVSS VL: DIQMTQSPSSLSASVGDRVTITCRTSQSISSYLNWYQQKPGKAPNLLIYAASSLQSGVPSRFSGSGSGTDFTLTISSLQPEDFATYYCQQSYITPITFGQGTRLEIK | – | 2% | 0.4% | 4.3% | – | – | no binding (tested: 10 µg/ml) | no binding (tested: 10 µg/ml) | no binding (tested: 10 µg/ml) | – |
| anti-LY6K antibody 3055 (antibody, V domains shown) VH: EVQLVESGGGLVQPGRSLRLSCAASGFTFDDFAMHWVRQAPGKGLEWVSGISWNTGTIGYADSVKGRFTISRDNAKNSLYLQMNSLRAEDTALYYCAKDKGTTGFDYWGQGTLVTVSS VL: DIQMTQSPSSVSASVGDRVTITCRASQGISRWLVWYQQKPGKAPKLLIYAASSLQSGVPSRFSGSGSGTDFTLTISSLQPEDFATYYCQQANSFPRTFGQGTRLEIK | 22.6% | 40.3% | 0.4% | – | – | – | – | – | – | – |
